Laboratory results taken from patent publication US20260191907A1.

How the values were obtained:
[1] = target: Recombinant FGFR4 (G&P Biosciences) (human) (UniProt P22455); assay: SPR (BIAcore T200), single cycle kinetics, FGFR4 amine-immobilised (12'000 RU), negative control nanobody as analyte, heterogeneous ligand model, component 2 (kon2)
[2] = target: Recombinant FGFR4 (G&P Biosciences) (human) (UniProt P22455); assay: SPR (BIAcore T200), single cycle kinetics, FGFR4 amine-immobilised (12'000 RU), negative control nanobody as analyte, heterogeneous ligand model, component 2 (koff2)
[3] = target: Recombinant FGFR4 (G&P Biosciences) (human) (UniProt P22455); assay: SPR (BIAcore T200), single cycle kinetics, FGFR4 amine-immobilised (12'000 RU), negative control nanobody as analyte, heterogeneous ligand model, component 1 (koff1)
[4] = target: Recombinant FGFR4 (G&P Biosciences) (human) (UniProt P22455); assay: SPR (BIAcore T200), single cycle kinetics, FGFR4 amine-immobilised (12'000 RU), negative control nanobody as analyte, heterogeneous ligand model, component 1 (KD1)
[5] = target: FGFR4 expressed on the surface of RMS cells (Rh4-FR4 wt, Rh30) (human) (UniProt P22455); assay: flow cytometry, recombinant nanobody at 30 µg/ml on Rh4-FR4 wt cells, anti-6xHis-FITC detection; equals the background of the secondary antibody alone
[6] = target: Recombinant FGFR4 (G&P Biosciences) (human) (UniProt P22455); assay: SPR (BIAcore T200), single cycle kinetics, FGFR4 amine-immobilised (12'000 RU), negative control nanobody as analyte, heterogeneous ligand model, component 2 (KD2)
[7] = target: Recombinant FGFR4 (G&P Biosciences) (human) (UniProt P22455); assay: SPR (BIAcore T200), single cycle kinetics, FGFR4 amine-immobilised (12'000 RU), negative control nanobody as analyte, heterogeneous ligand model, component 1 (kon1)

Chain of Recombinant FGFR4 (G&P Biosciences) (human) (P22455 22-369 limits assumed): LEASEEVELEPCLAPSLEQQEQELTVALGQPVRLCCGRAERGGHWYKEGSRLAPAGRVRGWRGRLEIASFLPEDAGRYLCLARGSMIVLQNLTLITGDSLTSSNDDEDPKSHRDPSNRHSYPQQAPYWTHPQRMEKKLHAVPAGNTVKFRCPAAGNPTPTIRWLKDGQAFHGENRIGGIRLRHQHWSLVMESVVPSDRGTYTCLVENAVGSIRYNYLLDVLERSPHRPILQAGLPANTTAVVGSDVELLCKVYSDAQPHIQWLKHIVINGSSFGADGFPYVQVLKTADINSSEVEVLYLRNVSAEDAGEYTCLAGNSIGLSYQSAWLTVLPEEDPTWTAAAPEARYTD
Chain of FGFR4 expressed on the surface of RMS cells (Rh4-FR4 wt, Rh30) (human) (P22455 22-802 limits assumed): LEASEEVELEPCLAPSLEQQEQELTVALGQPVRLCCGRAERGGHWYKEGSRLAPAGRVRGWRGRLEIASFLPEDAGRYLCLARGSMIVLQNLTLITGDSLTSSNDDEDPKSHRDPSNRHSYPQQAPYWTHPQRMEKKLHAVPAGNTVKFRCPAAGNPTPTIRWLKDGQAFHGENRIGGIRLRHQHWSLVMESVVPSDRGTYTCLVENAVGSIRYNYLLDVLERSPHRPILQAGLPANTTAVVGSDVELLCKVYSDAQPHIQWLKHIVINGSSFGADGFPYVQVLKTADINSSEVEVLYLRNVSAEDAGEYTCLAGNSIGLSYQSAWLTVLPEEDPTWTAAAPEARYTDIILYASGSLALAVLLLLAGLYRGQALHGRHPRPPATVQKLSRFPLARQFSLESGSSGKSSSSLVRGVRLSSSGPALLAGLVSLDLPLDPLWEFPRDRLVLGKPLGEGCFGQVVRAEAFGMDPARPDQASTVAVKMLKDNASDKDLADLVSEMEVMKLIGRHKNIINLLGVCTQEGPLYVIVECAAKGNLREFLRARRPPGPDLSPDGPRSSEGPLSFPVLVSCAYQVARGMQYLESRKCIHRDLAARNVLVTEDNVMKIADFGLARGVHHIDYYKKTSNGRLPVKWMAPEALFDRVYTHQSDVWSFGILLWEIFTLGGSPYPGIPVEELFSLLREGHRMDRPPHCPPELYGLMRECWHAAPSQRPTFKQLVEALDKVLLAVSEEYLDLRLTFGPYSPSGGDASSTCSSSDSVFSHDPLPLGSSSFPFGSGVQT

kon [1]: 2320 M⁻¹ s⁻¹ | koff [2]: 0.00505 s⁻¹ | koff [3]: 0.00511 s⁻¹ | Kd [4]: 1.96 µM | median fluorescence intensity (MFI) [5]: 200 MFI | Kd [6]: 2.18 µM | kon [7]: 2600 M⁻¹ s⁻¹
Substance: anti-mCherry nanobody (negative control) (VHH)
